From article PMC12831531 (Cell reports, 2025)
Where two headings read alike, the source gives them in different places.

Experiments:
[1] = molecular target: vFcγR on AD169-infected MRC5 cells (Figure 1C); assay: flow cytometry on cells
[2] = molecular target: biotinylated human FcRn (human) (UniProt P55899); assay: BLI; Octet RED96e; biotinylated FcRn on streptavidin biosensors; hu4D5 Fc variants 1000–31.2 nM; PBS pH 6.0, 0.02% Tween 20, room temperature; steady state
[3] = molecular target: t-gp68 (truncated gp68 ectodomain, soluble) (HCMV AD169); assay: SPR; BIAcore X100; t-gp68-twin strep-FLAG captured (40 RU) on anti-strep Fab; hu4D5 IgG1 Fc variants injected; 2:1 binding kinetics (first constants only) and steady state analysis
[4] = molecular target: hu4D5 human IgG1 antibody with Fc variant G5 (human); assay: BLI; Octet RED96e; hu4D5 IgG1 variants on CH1-binding (FAB2G) biosensors; CD16A F158 5000–156.25 nM, V158 2000–62.5 nM; room temperature, PBS pH 7.4, 0.02% Tween 20, 0.1% BSA; steady state
[5] = molecular target: hu4D5 human IgG1 antibody with Fc variant G2 (human); assay: as above
[6] = molecular target: hu4D5 human IgG1 antibody with wild-type Fc (human); assay: as above
[7] = molecular target: human IgG1 Fc (wild type, without Fab arms) (human); assay: SPR; BIAcore X100; 200 RU human IgG1 Fc immobilised on CM5; t-gp68-strep-FLAG injected 250–3 nM; 1:1 binding kinetics
[8] = molecular target: human IgG1 Fc (wild type, without Fab arms) (human); assay: negative-stain electron microscopy; purified Fc, gp34-M and t-gp68 combined in various ratios, complexes purified by SEC; 2 mM Tris pH 8.0, 200 mM NaCl; uranyl acetate
[9] = molecular target: human IgG1 Fc (wild type, without Fab arms) (human); assay: SPR; BIAcore X100; 200 RU human IgG1 Fc immobilised on CM5; t-gp68-strep-FLAG injected 250–3 nM; 1:1 binding kinetics; remark: listed apart in the source
[10] = molecular target: HCMV glycoprotein B (gB) on the surface of infected fibroblasts (Human cytomegalovirus AD169, UniProt P06473, strain); assay: flow cytometry on cells; antibody on AD169-, Δ3- or mock-infected MRC5 fibroblasts, on ice; extracellular antibody detected with goat anti-human Fcγ AF647 (anti-mouse Fcγ for SM5–1-mFc); details: one partner purified

Sequence of biotinylated human FcRn (human) (P55899 24-297, chain 1 of 2): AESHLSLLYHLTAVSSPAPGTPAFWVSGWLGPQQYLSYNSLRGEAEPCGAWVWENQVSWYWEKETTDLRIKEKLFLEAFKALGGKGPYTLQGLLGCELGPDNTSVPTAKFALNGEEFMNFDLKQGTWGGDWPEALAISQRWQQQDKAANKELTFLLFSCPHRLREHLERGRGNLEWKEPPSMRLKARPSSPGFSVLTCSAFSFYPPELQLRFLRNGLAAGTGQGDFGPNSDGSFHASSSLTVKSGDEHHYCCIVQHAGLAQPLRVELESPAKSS
Sequence of biotinylated human FcRn (human) (P61769 21-119, chain 2 of 2, further chain): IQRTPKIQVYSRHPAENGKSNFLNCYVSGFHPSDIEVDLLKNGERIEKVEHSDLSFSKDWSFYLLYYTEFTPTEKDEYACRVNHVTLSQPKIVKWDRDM

isotype control 2B1 human IgG1 antibody
percent of cells positive for extracellular antibody [1]: 30 % cells

hu4D5 human IgG1 antibody with wild-type Fc
Kd [2]: 50 nM
Kd [3]: 80 nM
ka1 (first step of a 2:1 fit) [3]: 65000 M⁻¹ s⁻¹
kd1 (first step of a 2:1 fit) [3]: 0.004 s⁻¹
kinetic KD from ka1 and kd1 of a 2:1 fit [3]: 69 nM

human CD16A F158 (from UniProt P08637 17-208) (receptor)
Kd [4]: 990 nM
Kd [5]: 360 nM
Kd [6]: 1160 nM

t-gp68 (truncated gp68 ectodomain, soluble) (domain or fragment)
Kd [7]: 110 nM
koff [7]: 0.005 s⁻¹
kon [7]: 40000 M⁻¹ s⁻¹
stoichiometry N [8]: 2
koff [9]: 0.004 s⁻¹

B1: SM5–1 human IgG1 antibody with wild-type Fc (antibody, V domains shown)
VH: QVQLVQSGAEVRKPGASVKVSCKASGYSLKDHYMVWVRQAPGQGLEWMGWINPQSGGTGYGQKFQGRVTMTRDTSTNTAYMILSSLRSDDTAVYFCARDGAKTVSNSGLSLLYYHNRLDAWGQGTMVTVSS
VL: QSVLTQPPSVSAAPGQMVTISCSGSSSNIGKNYVSWYQQLPGAAPKLLIFDNNKRPSGTPDRFSGSKSGTSATLVITGLQTGDEADYYCGTPDRSLSVIFGGGTKVTVL
notes: also called SM5–1 WT; human SM5–1; source: ExpiCHO, purified (Protein A)
percent of cells positive for extracellular antibody [10]: ~70%

B2: SM5–1 human IgG1 antibody with Fc variant G5 (antibody, V domains shown)
VH: B1 VH
VL: B1 VL
notes: IgG1; also called SM5–1 with G5; source: ExpiCHO, purified (Protein A)
percent of cells positive for extracellular antibody [10]: ~70%

B3: SM5–1 human IgG1 antibody with Fc variant G2 (antibody, V domains shown)
VH: B1 VH
VL: B1 VL
notes: IgG1; also called SM5–1 with G2; source: ExpiCHO, purified (Protein A)
percent of cells positive for extracellular antibody [10]: ~70%
